Laboratory results reported in patent publication US20090004211A1, “METHOD FOR EFFECTING LOCALIZED, NON-SYSTEMIC AND SYSTEMIC, IMMUNOGENIC TREATMENT OF CANCER USING ERP57 TRANSLOCATION” (priority 2006, published 2009).
Entries after “also recorded” stand apart in the source; their conditions may differ.

Key:
CT26 tumor cells [1] = assay: Anti-tumor vaccination: treated dying CT26 cells injected s.c., challenge with live tumor cells in opposite flank; assay type: in vivo, BALB/c mice; conditions: for restoration of immunogenicity defect by recombinant protein, anti-tumor vaccination: siRNA-transfected, mitoxantrone-treated CT26 cells
CT26 tumors = assay: Treatment of established CT26 tumors by single intratumoral injection; assay type: in vivo, BALB/c mice; conditions: for therapeutic effect of single intratumoral injection: agent alone
Description: (§1) All animals were maintained in specific pathogen-free conditions and all experiments followed the FELASA guidelines. 3×10^6 treated CT26 cells were inoculated s.c. in […] of PBS into BALB/c six-week-old female mice, into the lower flank, while 5×10^5 untreated control cells were inoculated into the contralateral flank. For the tumorigenicity assay, 3×10^6 treated or untreated CT26 cells were injected s.c. into nu/nu mice. To assess the specificity of the immune response against CT26, injections of either 5×10^5 or 5×10^6 of CT26 were made (for the mice immunized in a standard protocol or vaccination protocol, respectively). Tumors were evaluated weekly, using a caliper. In a series of experiments, BALB/c (wild type or nu/nu) carrying palpable CT26 tumors (implanted 14 days before for wild type or 7 days before for nu/nu mice by injection of […] tumor cells) received a single intratumoral injection of […] PBS containing the same concentration of anti-cancer agents and PP1/GADD34 inhibitors as those used in vitro, as well as rCRT ([…]). For the assessment of local immune response, 3×10^5 cells were injected in 50 μl into the footpad of mice. Five days later, mice were sacrificed and the draining lymph nodes were harvested. 1×10^5 lymph node cells were cultured for 4 days alone or with 1×10^4 CT26 cells killed by a freeze-thaw cycle in 200 μl in round-bottom 96-well plates. IFN-γ was determined by ELISA.

ERP57 [2] = assay: Fluorescence detection of cell surface ERP57 (cytofluorometry); assay type: cell-based, mouse; conditions: murine MCA205, B16F10, J558; human HeLa, A549, HCT116
CRT = assay: Fluorescence detection of cell surface CRT (cytofluorometry); conditions: for time after treatment at which CRT exposure is detectable: intact cells; for reversal of siRNA-induced defect at the level of CRT expression: CRT-specific or ERP57 specific siRNA, recombinant protein added
Description: CT26 cells (on a glass slide or in 12-well plates) were first washed with FACS buffer (1×PBS, 5% fetus bovine serum, and 0.1% sodium azide) and then incubated with rabbit anti-mouse CRT antibody (1:100, Stressgen), or rabbit anti-mouse ERP57 antibody (abcam) in FACS buffer at 4° C. for 30 min. […] After washing three times with FACS buffer, surface CRT and ERP57 was detected by cytofluorometric analysis on a FACS Vantage. In some experiments, cells were fixed with 4% paraformaldehyde, counterstained with Hoechst (2 μM; Sigma), followed by fluorescence microscopic assessment.
Trypsinized CT26 cells were enucleated as described. Briefly, cells were treated in 2 ml of complete RPMI medium containing cytochalasin B (10 μg/ml; Sigma) and DNase I (80 U/ml; Sigma). […] Gradients containing cell suspensions were centrifugated in a prewarmed SW41 Beckman rotor at 25 000 rpm for 20 minutes at 30° C. […] Then the cell surface CRT was detected (see materials and methods) and the viability was determined by with propidium iodine staining (2 μg/ml, Sigma) for 5 min followed by cytofluorometric analysis.

CT26 cells [3] = assay: Phagocytosis assay: uptake of treated tumor cells by dendritic cells; assay type: cell-based, mouse; conditions: for reversal of siRNA-induced defect at the level of phagocytosis by DC: CRT-specific or ERP57 specific siRNA, recombinant protein added
Description: BM cells were flushed from the tibias and femurs of BALB/c mice with culture medium composed of RPMA 1640 medium supplemented with 10% heat-inactivated FBS, sodium pyruvate, […] 2-ME. 10 mM HEPES (pH 7.4), and penicillin/streptomycin. After one centrifugation, BM cells were resuspended in Tris-ammonium chloride for 2 min to lyse RBC. After one more centrifugation, BM cells (1×10^6 cells/ml) were cultured in medium supplemented with 100 ng/ml recombinant mouse FLT3 ligand in 6-well plates. […] In 12-well plates, […] adherent CT26 cells were labeled with Celltracker Orange and then incubated with drugs. […] Alternatively CT26 cells were coated with 3 μg/10^6 cells of rCRT on ice for 30 minutes and washed twice prior to addition to dendritic cells. Cells were then harvested, washed three times with medium supplemented with FBS and cocultured with immature DC for 2 hours at a ratio of 1:1 and 1:5. At the end of the incubation, cells were harvested with Versene, pooled with non-adherent cells present in the supernatant, washed and stained with CD11c-FITC antibody. Phagocytosis was assessed by FACS analysis of double positive cells. Phagocytic indexes refer to the ratio between values obtained at […] of co-incubation between DC and tumor cells. Trypsinized CT26 cells were enucleated as described. Briefly, cells were treated in 2 ml of complete RPMI medium containing cytochalasin B (10 μg/ml; Sigma) and DNase I (80 U/ml; Sigma). Cell suspension was adjusted to a final concentration of 5×10^6/ml and incubated at 37° C. for 45 minutes before being layered onto a previously prepared discontinuous Ficoll density gradient (3 ml of 100%, in 1 ml of 90% and 3 ml of 55% Ficoll Paque layer containing 5 μg/ml cytochalasin B and 40 U/ml DNase I; gradients were prepared in ultracentrifuge tubes and pre-equilibrated at 37° C. in a CO2 incubator overnight). Gradients containing cell suspensions were centrifugated in a prewarmed SW41 Beckman rotor at 25 000 rpm for 20 minutes at 30° C. The cytoplasts-enriched fraction was collected from the interface between 90 and 100% Ficoll layers, washed in complete RPMI 1640 medium, and incubated at 37° C. The cells were incubated with mitoxantrone (MTX), calyculin (CA), salubrinal (Sal) and toutomycin (TA) for the period of time indicated in the experiment. […] Alternatively cythoplasts were cocultured with immature DC for 2 hours at a ratio of 1:1 and 1:5. At the end of the incubation, cells were harvested with versene, pooled with non-adherent cells present in the supernatant, washed and stained with CD11c-FITC antibody. Phagocytosis was assessed by FACS analysis of double positive cells.

ERP57 [4] = assay: Fluorescence detection of cell surface ERP57 (cytofluorometry); assay type: cell-based, mouse
Description: CT26 cells (on a glass slide or in 12-well plates) were first washed with FACS buffer (1×PBS, 5% fetus bovine serum, and 0.1% sodium azide) and then incubated with rabbit anti-mouse CRT antibody (1:100, Stressgen), or rabbit anti-mouse ERP57 antibody (abcam) in FACS buffer at 4° C. for 30 min. Cells reacted with anti-rabbit IgG (H+L) Alexa fluor 488-conjugates (1:500) in FACS buffer at 4° C. for 30 min. After washing three times with FACS buffer, surface CRT and ERP57 was detected by cytofluorometric analysis on a FACS Vantage. In some experiments, cells were fixed with 4% paraformaldehyde, counterstained with Hoechst (2 μM; Sigma), followed by fluorescence microscopic assessment.

CT26 cells [5] = system: CT26 cells
sperm-egg fusion = assay: Sperm-egg fusion assay; assay type: cell-based, ICR mice
Description: Gamete Isolation. Using mature, cumulus-free oocytes from superovulated 6-week-old to 8-week-old ICR female mice, eggs were denuded from the zona pellucida and loaded with DAPI. Sperms were collected from each cauda epididymis and vas deferens of 10- to 12-week-old ICR males. […] […] All the experiments were performed according to the animal care and use protocols approved by French and European Union Ethical Committee.
Sperm-Egg Fusion Assay. […] After the incubation, the sperms or eggs were washed. Sperms were added at a final concentration of 1-3×10^5 sperm/ml and coincubated with gamete for 40 min at 37° C. and 5% CO2. The oocytes were then washed to release loosely bound sperms and mounted onto microscope slides. Alternatively, non-capacitated sperms were incubated with recombinant CRT or ERP57, 3 μg/10^5 sperm, for 30 min 37° C. and 5% CO2, followed by three washes with PBS. Sperm-egg fusion scored by the fluorescent labeling of sperm nuclei by DAPI transferred from preloaded eggs. Fertilization rote (FR) is the percentage of oocytes with at least one fused sperm, and Fertilization index (FI) is the mean number of fused sperm per egg. Both the FR and FI are expressed of the control treatment.

CT26 tumor cells [6] = assay: Local immune response: tumor cells injected into footpad, IFN-γ secretion by draining lymph node cells (ELISA); assay type: in vivo, Balb/c mice; conditions: for restoration of immunogenicity defect by recombinant protein, interferon-γ production: siRNA-transfected, mitoxantrone-treated CT26 cells
Description: as §1

DC = DC maturation ex vivo; assay type: cell-based; conditions: protein alone, large range of concentrations
[7] = immunocompetent BALB/c mice, 14-day-old CT26 tumors

O=C1c2c(O)ccc(O)c2C(=O)c2c(NCCNCCO)ccc(NCCNCCO)c21 [mitoxantrone]
immunogenicity of cell death (protection against tumor growth on rechallenge) (CT26 tumor cells [1]; CT26 cells treated in vitro with agent alone, immunocompetent BALB/c mice): elicited immunogenic cell death
therapeutic effect of single intratumoral injection (CT26 tumors; [7]): permanent regression in some but not all cases
therapeutic effect of single intratumoral injection (CT26 tumors; immunodeficient nu/nu mice): no cure
ERP57 exposure on panel of tumor cell lines (ERP57 [2]): induced
time to CRT exposure in enucleated cells (CRT; cytoplasts): ≤ 1 h
time after treatment at which CRT exposure is detectable (CRT): 1 h
CRT exposure on panel of tumor cell lines (CRT; murine MCA205, B16F10, J558, human HeLa, A549, HCT116): induced
time after treatment at which tumor cells are phagocytosed by DC (CT26 cells [3]; before apoptotic changes): within a few hours after treatment
uptake of treated cytoplasts by DC (CT26 cells [3]; enucleated cells (cytoplasts)): as efficiently as intact cells
time to ERP57 exposure in enucleated cells (ERP57 [4]; cytoplasts): ≤ 1 h

peptide inhibitor: protein transduction domain-5 (RRQRRTSKLMKR) fused to the inhibitory sequence of the complex PP1/GADD34 (LKARKVRFSEKV) (RRQRRTSKLMKRLKARKVRFSEKV)
CRT exposure at cell surface (CRT; CT26 cells, agent alone): increase greatly and quickly
time after treatment at which CRT exposure is detectable (CRT): 1 h
ERP57 exposure at cell surface (ERP57 [4]; CT26 cells, agent alone): increase greatly and quickly
time after treatment at which ERP57 exposure is detectable (ERP57 [4]; intact cells): 1 h
toxic effect (CT26 cells [5]; 24 h of treatment): no toxic effect
percentage of dead cells positive for DAPI and Annexin V (CT26 cells [5]; after 24 h of treatment): did not increase the percentage of dead cells

B1: rERP57: recombinant ERP57 protein (protein)
chain: SDVLELTDENFESRVSDTGSAGLMLVEFFAPWCGHCKRLAPEYEAAATRLKGIVPLAKVDCTANTNTCNKYGVSGYPTLKIFRDGEEAGAYDGPRTADGIVSHLKKQAGPASVPLRTEEEFKKFISDKDASVVGFFRDLFSDGHSEFLKAASNLRDNYRFAHTNIESLVKEYDDNGEGITIFRPLHLANKFEDKTVAYTEKKMTSGKIKKFIQDSIFGLCPHMTEDNKDLIQGKDLLTAYYDVDYEKNAKGSNYWRNRVMMVAKKFLDAGHKLNFAVASRKTFSHELSDFGLESTTGEVPVVAIRTAKGEKFVMQEEFSRDGKALEQFLQEYFDGNLKRYLKSEPIPESNEGPVKVVVAENFDDIVNEEDKDVLIEFYAPWCGHCKNLEPKYKELGEKLSKDPNIVIAKMDATANDVPSPYEVKGFPTIYFSPANKKLTPKKYEGGRELNDFISYLQREATNPPIIQEEKPKKKKKAQEDL
restoration of immunogenicity defect by recombinant protein, anti-tumor vaccination (CT26 tumor cells [1]): not restored
restoration of immunogenicity defect by recombinant protein, anti-tumor vaccination (CT26 tumor cells [1]; listed as recombinant ERP57): did not restore the protection against tumors
fertilization rate and index (sperm-egg fusion; non-capacitated sperm with recombinant protein): no significant effect
restoration of immunogenicity defect by recombinant protein, interferon-γ production (CT26 tumor cells [6]): not restored
restoration of immunogenicity defect by recombinant protein, interferon-γ production (CT26 tumor cells [6]; listed as recombinant ERP57): did not restore
reversal of siRNA-induced defect at the level of CRT expression (CRT): did not reverse the defect
reversal of siRNA-induced defect at the level of phagocytosis by DC (CT26 cells [3]): did not reverse the defect
DC maturation ex vivo (DC): could not promote DC maturation

B2: rCRT: recombinant CRT (calreticulin) protein, which binds to the surface of the cells (protein)
chain: DPAIYFKEQFLDGDAWTNRWVESKHKSDFGKFVLSSGKFYGDLEKDKGLQTSQDARFYALSAKFEPFSNKGQTLVVQFTVKHEQNIDCGGGYVKLFPSGLDQKDMHGDSEYNIMFGPDICGPGTKKVHVIFNYKGKNVLINKDIRCKDDEFTHLYTLIVRPDNTYEVKIDNSQVESGSLEDDWDFLPPKKIKDPDAAKPEDWDERAKIDDPTDSKPEDWDKPEHIPDPDAKKPEDWDEEMDGEWEPPVIQNPEYKGEWKPRQIDNPDYKGTWIHPEIDNPEYSPDANIYAYDSFAVLGLDLWQVKSGTIFDNFLITNDEAYAEEFGNETWGVTKAAEKQMKDKQDEEQRLKEEEEDKKRKEEEEAEDKEDDDDRDEDEDEEDEKEEDEEESPGQAKDEL
anti-tumor immune response to etoposide-treated cells coated with protein (CT26 tumor cells [1]; etoposide-treated cells): elicited a vigorous anti-tumor immune response
anti-cancer immune response, protein absorbed to cells without prior cell death inducer (CT26 tumor cells [1]; live cells, no cell death inducer): failed to elicit an anti-cancer immune response
restoration of immunogenicity defect by recombinant protein, anti-tumor vaccination (CT26 tumor cells [1]): this defect was restored; also recorded: restores the protection against tumors
therapeutic effect of single intratumoral injection (CT26 tumors; [7]): no major therapeutic effect
therapeutic effect of single intratumoral injection (CT26 tumors; immunodeficient nu/nu mice): no major therapeutic effect
effect of injection into a distant site on antitumoral effects of intratumorally injected etoposide (CT26 tumors; contralateral subcutaneous injection): did not ameliorate the antitumoral effects
therapeutic effect of intratumoral injection combined with etoposide or mitomycin C (CT26 tumors; immunocompetent animals): able to cause tumor regression
therapeutic effect of intratumoral injection combined with etoposide or mitomycin C (CT26 tumors; immunodeficient (athymic) animals): not in immunodeficient
sperm-egg fusion, recombinant protein absorbed to sperm without prior capacitation (sperm-egg fusion; non-capacitated sperm): restores very efficiently the fusion
immunogenicity of mitomycin C-treated cells with protein absorbed to plasma membrane (CT26 tumor cells [6]; mitomycin C-treated cells): greatly enhanced the immunogenicity
restoration of immunogenicity defect by recombinant protein, interferon-γ production (CT26 tumor cells [6]): this defect was restored
reversal of siRNA-induced defect at the level of CRT expression (CRT): could reverse the defect
reversal of siRNA-induced defect at the level of phagocytosis by DC (CT26 cells [3]): could reverse the defect; also recorded: restores phagocytosis
DC maturation ex vivo (DC): could not promote DC maturation
